This assay addresses unidentified GPNMB ligand(s) on the surface of SVEC4-10 cells. Nature of the assay: flow cytometry, soluble moGPNMB-Fc on SVEC4-10 cells, PE anti-IgG Fc secondary; thin-line histogram shifted right with a tail to about 10^4, thick-line control histogram near 0. For orientation: In flow cytometry, cells or beads pass a laser one at a time.

This note sets out measurements from US20250270343A1.

B1: soluble mouse GPNMB-Fc polypeptide (Fc of human IgG1 or mouse IgG2A, not specified for the assay) (Fc fusion, UniProt Q99P91 23-502, looked up, not shown: a dimerising Fc or GST)
chain: KRFRDVLGHEQYPDHMREHNQLRGWSSDENEWDEHLYPVWRRGDGRWKDSWEGGRVQAVLTSDSPALVGSNITFVVNLVFPRCQKEDANGNIVYEKNCRNDLGLTSDLHVYNWTAGADDGDWEDGTSRSQHLRFPDRRPFPRPHGWKKWSFVYVFHTLGQYFQKLGRCSARVSINTVNLTAGPQVMEVTVFRRYGRAYIPISKVKDVYVITDQIPVFVTMSQKNDRNLSDEIFLRDLPIVFDVLIHDPSHFLNDSAISYKWNFGDNTGLFVSNNHTLNHTYVLNGTFNLNLTVQTAVPGPCPPPSPSTPPPPSTPPSPPPSPLPTLSTPSPSLMPTGYKSMELSDISNENCRINRYGYFRATITIVEGILEVSIMQIADVPMPTPQPANSLMDFTVTCKGATPMEACTIISDPTCQIAQNRVCSPVAVDGLCLLSVRRAFNGSGTYCVNFTLGDDASLALTSTLISIPGKDPDSPLRAVN
As to B1, the PE-A subset (share of cells in the drawn gate, unit not given) was determined as 70.1.
